± gives the uncertainty stated by the source.
Test: amyloid nucleation score (Sup35N fusion, yeast selection) (log enrichment); library NNK1; higher = more nucleation; inactive = no reads after selection
In short: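 Psi-negative yeast expressed Sup35N fused to peptides of 20 random codons. They were induced 24 hours with 100 μM copper sulfate, grown 7 days at 30°C without adenine and uracil, and their plasmid inserts from input and output were Illumina-sequenced. The nucleation score is the DiMSum log enrichment of output over input reads, centred on the mode score of non-aggregating sequences. Sequences with under 100 input reads were excluded.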

For EYLLNNPVGRCFDLLFNSIG, which amyloid nucleation score is on record?
Its amyloid nucleation score is -0.881 ± 0.66.

For HTSFGVCVSVICFVLRWAYH, which amyloid nucleation score is on record?
Its amyloid nucleation score is “inactive”.

Which amyloid nucleation score does the source give for QGGRVDGSPPTVYA here?
Its amyloid nucleation score is 0.555 ± 0.46.

With GMSIE as the substance, how does the amyloid nucleation score read?
Its amyloid nucleation score is -0.314 ± 0.8.

With TIVSGTRSYNLHRSILLLHL as the substance, how does the amyloid nucleation score read?
Its amyloid nucleation score is 1.5 ± 0.23.

With FTWMRYQKHEGHFI as the substance, how does the amyloid nucleation score read?
The amyloid nucleation score was -0.447 ± 1.2.

Which amyloid nucleation score does the source give for GNMSCPFVQRREVLLC here?
The amyloid nucleation score was -0.383 ± 1.4.

For FRYLVKYRVLH, which amyloid nucleation score is on record?
Its amyloid nucleation score is 0.14 ± 0.44.

With LEVMRWYWESLLACISLCD as the substance, how does the amyloid nucleation score read?
The amyloid nucleation score was 0.853 ± 0.74.

Which amyloid nucleation score does the source give for LHPVLALPAFNVDRNSMPC here?
The amyloid nucleation score was -0.335 ± 0.52.

Which amyloid nucleation score does the source give for QAVRIVGERLAFFGN here?
Its amyloid nucleation score is 0.607 ± 0.65.

With SMLLSRKHCGGVNEKHFM as the substance, how does the amyloid nucleation score read?
Its amyloid nucleation score is -0.311 ± 0.35.

With CTAQTSCILW as the substance, how does the amyloid nucleation score read?
Its amyloid nucleation score is 0.2 ± 0.29.

Which amyloid nucleation score does the source give for SHMMHSMAEVSFARYWDKQS here?
The amyloid nucleation score was -2.46 ± 1.9.

For YTNGNIASTVLYLRPGYHLA, which amyloid nucleation score is on record?
Its amyloid nucleation score is 1.06 ± 0.49.

For TSFLWLLTFERFD, which amyloid nucleation score is on record?
Its amyloid nucleation score is “inactive”.

With VMILNLIVDTRLRVSRHLHV as the substance, how does the amyloid nucleation score read?
Its amyloid nucleation score is 2.88 ± 0.28.

For HPLRLYRKSISINVVLSSCL, which amyloid nucleation score is on record?
Its amyloid nucleation score is 0.733 ± 0.88.

With VNCSRYRGESASDNWSGALL as the substance, how does the amyloid nucleation score read?
The amyloid nucleation score was -0.186 ± 0.85.

For DVYKKIFLRLNCYQVSMRIE, which amyloid nucleation score is on record?
The amyloid nucleation score was -0.697 ± 0.27.

Which amyloid nucleation score does the source give for MLNVEGNTLKSWIYGRHLVP here?
The amyloid nucleation score was 0.097 ± 0.69.

With NRLVMLLLTLSNGSCEKVRD as the substance, how does the amyloid nucleation score read?
Its amyloid nucleation score is 2.95 ± 0.094.

With RCSFFSYCVNDAS as the substance, how does the amyloid nucleation score read?
Its amyloid nucleation score is 3.55 ± 0.12.

With RSSNNIPGGYWEPYGQHHFH as the substance, how does the amyloid nucleation score read?
Its amyloid nucleation score is 2.44 ± 0.13.

With SCLLTMSLE as the substance, how does the amyloid nucleation score read?
The amyloid nucleation score was 0.11 ± 0.43.

Which amyloid nucleation score does the source give for QGLADNKSSFKGV here?
The amyloid nucleation score was 0.591 ± 1.

Which amyloid nucleation score does the source give for AMQGACGFISGGFSVARVFV here?
Its amyloid nucleation score is 0.296 ± 0.25.

For HDSNHFLRDLLVILRYYEAV, which amyloid nucleation score is on record?
Its amyloid nucleation score is “inactive”.

For RNKSGSGYKLFVSGELAQQM, which amyloid nucleation score is on record?
Its amyloid nucleation score is “inactive”.

Which amyloid nucleation score does the source give for VNFILNF here?
Its amyloid nucleation score is 5.41 ± 0.066.

For KSTTLLVGSRSCGAHLQRLH, which amyloid nucleation score is on record?
The amyloid nucleation score was 0.462 ± 0.37.

Which amyloid nucleation score does the source give for LLNMCNNESTLERNPF here?
The amyloid nucleation score was 1.93 ± 0.37.

With SRLEHRFLICNPELYVNFFM as the substance, how does the amyloid nucleation score read?
The amyloid nucleation score was 6.799 ± 0.047.

Which amyloid nucleation score does the source give for CRTCRNQRMKDKSELSWLMS here?
Its amyloid nucleation score is -0.589 ± 0.6.

With APVSIKCRFL as the substance, how does the amyloid nucleation score read?
The amyloid nucleation score was 0.357 ± 0.55.

Which amyloid nucleation score does the source give for PWYVIKV here?
Its amyloid nucleation score is -0.055 ± 0.31.

With NRLCDK as the substance, how does the amyloid nucleation score read?
Its amyloid nucleation score is 1.25 ± 0.35.

For FIRASWCSRIYIKFVN, which amyloid nucleation score is on record?
The amyloid nucleation score was 0.587 ± 0.43.

With YSAALRHGQRHKWRSGRKIG as the substance, how does the amyloid nucleation score read?
Its amyloid nucleation score is 0.674 ± 1.2.

Which amyloid nucleation score does the source give for AICRLDVVWVT here?
Its amyloid nucleation score is 0.135 ± 0.37.

With LQSAVRWWHFDSRLGEAKLM as the substance, how does the amyloid nucleation score read?
Its amyloid nucleation score is 0.902 ± 0.69.

Which amyloid nucleation score does the source give for KDVVISVGGMSVVLFSSRPH here?
The amyloid nucleation score was 4.52 ± 0.091.

Which amyloid nucleation score does the source give for DNGFSTQA here?
The amyloid nucleation score was -0.11 ± 0.82.

For SWRTCAPTWKVALFIWMCTS, which amyloid nucleation score is on record?
Its amyloid nucleation score is 3.39 ± 0.17.

For NVVYMYSSASEYVWHRRLGF, which amyloid nucleation score is on record?
Its amyloid nucleation score is -0.993 ± 0.43.

With SINVL as the substance, how does the amyloid nucleation score read?
Its amyloid nucleation score is -1.03 ± 0.55.

Which amyloid nucleation score does the source give for ARNIVSFDGTFYSFKQTYTP here?
The amyloid nucleation score was 2.12 ± 0.19.

Which amyloid nucleation score does the source give for FSLLYV here?
Its amyloid nucleation score is 0.321 ± 0.67.

Which amyloid nucleation score does the source give for RYIVVG here?
Its amyloid nucleation score is 0.106 ± 0.24.

For EGSQLSPAWFGYRDDGFTTM, which amyloid nucleation score is on record?
The amyloid nucleation score was 0.904 ± 1.

With YHNGDYCCVQFTTGSWVVRW as the substance, how does the amyloid nucleation score read?
Its amyloid nucleation score is 0.391 ± 0.28.

Which amyloid nucleation score does the source give for RKYKRTVMDMKCYWQGVWSV here?
Its amyloid nucleation score is 0.136 ± 0.5.

With FTLRSDVAQQVIDDMGAVGS as the substance, how does the amyloid nucleation score read?
The amyloid nucleation score was -1.11 ± 1.5.

With QKLLTSMSVITW as the substance, how does the amyloid nucleation score read?
The amyloid nucleation score was 1.81 ± 0.65.

With YANTTWSLTLTTVQHRNVAD as the substance, how does the amyloid nucleation score read?
Its amyloid nucleation score is 3.35 ± 0.16.

For GFRFW, which amyloid nucleation score is on record?
Its amyloid nucleation score is 2.96 ± 0.11.

Which amyloid nucleation score does the source give for ACSPSLVL here?
Its amyloid nucleation score is 1.52 ± 0.84.

With HAVQLRYLKKKWGWYALCKR as the substance, how does the amyloid nucleation score read?
The amyloid nucleation score was 0.712 ± 0.72.

Which amyloid nucleation score does the source give for LMNICRNVARG here?
Its amyloid nucleation score is -0.876 ± 0.71.

For LSTKKTQTMRRVW, which amyloid nucleation score is on record?
The amyloid nucleation score was 0.404 ± 0.44.

For RKFRGLVKLL, which amyloid nucleation score is on record?
The amyloid nucleation score was 1.28 ± 0.85.

Which amyloid nucleation score does the source give for TCGRGHVTRGYWGTMCGCNG here?
The amyloid nucleation score was 1.06 ± 0.72.

Which amyloid nucleation score does the source give for AFDQGGIYTVPSGKNFPCTL here?
Its amyloid nucleation score is -0.186 ± 0.4.

Which amyloid nucleation score does the source give for SHRSFFCSSLWMNYYCLISS here?
The amyloid nucleation score was “inactive”.

Which amyloid nucleation score does the source give for FPDELESWRTSASPRVAPMG here?
The amyloid nucleation score was -0.247 ± 1.9.

For SRCRGSYTSSNSYWPAGDPM, which amyloid nucleation score is on record?
Its amyloid nucleation score is -0.777 ± 1.7.

With IFSIRFTLCGWPLLCHIMLL as the substance, how does the amyloid nucleation score read?
Its amyloid nucleation score is -0.302 ± 0.31.

With ISGTRLVLGLDDSR as the substance, how does the amyloid nucleation score read?
Its amyloid nucleation score is 0.069 ± 0.37.

Which amyloid nucleation score does the source give for DSFVRT here?
Its amyloid nucleation score is “inactive”.

For GIDVCWSFFILYVWERVIRG, which amyloid nucleation score is on record?
The amyloid nucleation score was 0.337 ± 0.36.

Which amyloid nucleation score does the source give for RCPYSYHGYSVNNWGSAWT here?
Its amyloid nucleation score is 0.487 ± 0.54.

For NQDMVNMIHETFIVLARVVI, which amyloid nucleation score is on record?
Its amyloid nucleation score is -0.059 ± 0.38.

For LWLRYGL, which amyloid nucleation score is on record?
The amyloid nucleation score was 0.415 ± 0.72.

For RGSYHRLWCI, which amyloid nucleation score is on record?
Its amyloid nucleation score is 0.114 ± 0.72.

For MDRIRFLFFW, which amyloid nucleation score is on record?
The amyloid nucleation score was 0.448 ± 0.69.

With TILYVVARYF as the substance, how does the amyloid nucleation score read?
The amyloid nucleation score was -0.004 ± 0.35.

For SSNLRKTFMSAMHVSSCMV, which amyloid nucleation score is on record?
The amyloid nucleation score was 0.396 ± 0.56.

With VLLIPMTKAKMKMSIW as the substance, how does the amyloid nucleation score read?
Its amyloid nucleation score is 0.584 ± 0.34.

With GLSQWGTVRCHTAASIYLAT as the substance, how does the amyloid nucleation score read?
The amyloid nucleation score was 0.316 ± 0.58.

Which amyloid nucleation score does the source give for SWLIRLSLYWYVNWSCMVGV here?
The amyloid nucleation score was -0.009 ± 0.45.

For RTELPHFFRVFAHRFACSGD, which amyloid nucleation score is on record?
Its amyloid nucleation score is 1.31 ± 0.93.

For PLKHVRQDWCTKLICNSGNY, which amyloid nucleation score is on record?
The amyloid nucleation score was -0.357 ± 0.43.

With HFTIKF as the substance, how does the amyloid nucleation score read?
Its amyloid nucleation score is 1.06 ± 0.27.

For IEVDPTNSKKSAPDTHLGSL, which amyloid nucleation score is on record?
The amyloid nucleation score was -0.001 ± 0.95.

For TFSDFIQKGWRFIFKYPFRC, which amyloid nucleation score is on record?
Its amyloid nucleation score is 0.686 ± 0.35.

With QWAFYVNYLTSRDYFNIFTR as the substance, how does the amyloid nucleation score read?
Its amyloid nucleation score is 1.05 ± 0.16.

Which amyloid nucleation score does the source give for VLYTTLHGFYHNCWLWLRYS here?
Its amyloid nucleation score is -0.191 ± 0.42.

With CFSLWY as the substance, how does the amyloid nucleation score read?
Its amyloid nucleation score is 0.089 ± 0.29.

From the supplement of paper PMC12042874
